# Assay: label from the status in PepcDB records
row,Sequence,protein production
1,MRHVSNGDPVRVVIVTDGAYGAPAESGDYAQTRRRESTRAAAILGYGAPEFWNLPDRGLEYGERLIQRVLTAMEDHAAELVYAPSWWEVHPDHRVLALAATEAVRRCTRPLRLAMYEVGVPLQPNALLDITDLAERKASAVACFSSQLAQQDYDEQIASLNRFRTYTLPRTVRAAEGYLVLAAEELRNRIPRMMTQKDRLAVRGETGDTAATPLVSVIIPSMDGPRLKEALDSVALQTYPRIEAVVIDAKGEGHTPLPRWCGRFPLRFIPSDISLSRGRAADVGLEHAEGDYLVFLGEDDVFQPGDVASLVAEAARKQGTGLCSHADRRMTVFSGGVVDGSPRTGKPGKPAFLPLHAVLFDRSLAELRCRFDGDANVPEDGDFWDQAMQHVASIHPGACRHGHGLPGGEAGRHTIVRLPPWTSPAPLPPGASLARTPHPTERDSLRRRIQRAGRRIYETPPRGLTDALVRTAYRIWARLSSDSMITNDGKGTLEHHHHHH,failed
2,MRIEPRPLPETLPDLGDLPPLLARLYAARGVRCAEELDKGLARLIPYQRLKGIEEGVALLVDALEGGQRILIVGDFDADGATASSVGVLALRMLGAAWVDYLVPNRFEYGYGLTPEIVGVALEKRPDLLVTVDNGISSVDGVQAAKAAGLKVLVTDHHLPGPELPAADAIINPNQPGCEFPSKA,failed
3,MRIGVIMGGVSSEKQVSIMTGNEMIANLDKNKYEIVPITLNEKMDLIEKAKDIDFALLALHGKYGEDGTVQGTLESLGIPYSGSNMLSSGICMDKNISKKILRYEGIETPDWIELTKMEDLNFDELDKLGFPLVVKPNSGGSSVGVKIVYDKDELISMLETVFEWDSEVVIEKYIKGEEITCSIFDGKQLPIISIRHAAEFFDYNAKYDDASTIEEVIELPAELKERVNKASLACYKALKCSVYARVDMMVKDGIPYVMEVNTLPGMTQASLLPKSADAAGIHYSKLLDMIIETSLRVRKEEGF,not failed
4,MRILFVGPPLYGLLYPVLSLAQAFRVNGHEVLIASGGKFAQKAAEAGLVVFDAAPGFDSEAGYRRQEALRKENNIGTKMGNFSFFSEEMTDPLVAFAGQWRPDLIVYPPLGVVGPLIAAKYDIPVVMQTVGFGHTPWHIKGVTKSLSNAYRRHGVSAPPRDLAWIDVTPPSMSILQNDGEPVISMQYVPYNGGAVWEEWWERTPDRKRLLVSLGTVKPMVDGLDLISWVMDSAGEVDAEIILHLPANARSDLRSLPPNVRLVDWLPMGVFLNGADGFIHHGGAGNTLTALHAGIPQIVFGQGADRPVNARAVVERGCGIIPGKSGLTSSMINTFLGNRALREASQEVAAEMAAQPCPTEVAKKLIAMLQHGLEHHHHHH,failed
5,MRILSGMRPTGKLHIGHLVGALENWVKLQEEGNECFYFVADWHALTTHYDDVSKLKEYTRDLVRGFLACGIDPEKSVIFVQSGVKEHAELALLFSMIVSVSRLERVPTYKEIKSELNYKDLSTAGFLIYPVLQAADILIYKAEGVPVGEDQVYHIELTREIARRFNYLYDEVFPEPEAILSRVPKLPGTDGRKMSKSYGNIINLEISEKELEQTILRMMTDPARVRRSDPGNPENCPVWKYHQAFDISEEESKWVWEGCTTASIGCVDCKKLLLKNMKRKLAPIWENFRKIDEDPHYVDDVIMEGTKKAREVAAKTMEEVRRAMNLMF,not failed
6,MRIPHHLSRSPTGRWSFVQRVPVDLQTVMGCRLIKRTLQTKDLAQAHVRAVVLGAGYARLFAQLTDQRVDKLSKTDADLLIARLTSAENLQDLTLNRTRQPDGTVTEQWQIDSPKDLKLYRQLMELEAMAGAALQARAHPVAVPTMFGSTHAGPSRQSSAPAIETMTLGKARDAFLATLKGSTLPKTYTIKKTAIEALVSFLGPTMKVHAITRSDLARWYQDMREKGASTPTLTNKQSYIGGRGGFFEWAMASGHYPKGDNPASGHVSYSQREKRARKKLGFKAYDRAQIQALFAPEALAKLSESARWASFLGLYTGARASEVGQLLVKDVFEEDGIPCIRISDEGEHQKVKTEVSLRTVPLHPELLKMGFLEWVGGKRKVGETRLFPAAKATAVNGQGNWITKAFSRHLAEVGKNWEPAKRGFHSLRKTLIQELQGAGVVSELRAQIVGHELDDEHHSTYGRDFTVVEKLRGLGPHSPGISRLSFFQ,failed
7,MRIRFSRCASPRGKSSTGVIVPVCSAIYSIRRFWRWNKMKISVVIPTFNRCHLLAEAINSALDQASSELEVEAVIVDDESDDGTAAWLETAFAGEHRVRVLVNGRGKRPAGARNTGILAARHPKVGVIFSRARYEQDETEVPYMDPNFECKLCYASIATEDKDAVVFDRSYFGHLLKYSCYFNLSAVVMTADAARQLMSESLHIAEDFKFWVRLSHEQIFACLKVPQIRYRSHSANIPFKADKDPAGNTPSMLHTYRLMLGYPGLARSNREQLRKHMAKEYFDWAYRCSRKGRLAEALRLRLALFDLLWKNVVACVKLPWIGLRYRADRVGSTEQ,failed
8,MRIVGLTGGIASGKSTVSNLFKASGIPVVDADVVARDVLKKGSGGWKRVVAAFGEEILLPSGEVDRPKLGQIVFSSDSKRQLLNKLMAPYISSGIFWEILKQWASGAKVIVVDIPLLFEVKMDKWTKPIVVVWVSQETQLKRLMERDGLSEEDARNRVMAQMPLDSKRSKADVVIDNNGSLDDLHQQFEKVLIEIRRPLTWIEFWRSRQGAFSVLGSVILGLSVCKQLKIGS,failed
9,MRIYRTLTTYIARTYLTALVGATLVVGALLMLFDVIEITRRSGSKAIGIDVVLEMALYHLPMSLQSALPFVFMGGAVMIFWKLARSSELVVIRAAGLSVWQFLAPVIAVVVVLGIANVTLLNPLAAHLYTKYERMDAGMDSGVANPLALSDGGLWLRENNPEGQVVMHAQGVRQVDNALRMTGVTIFRYGPDRRFESRIDAETAGLREGALVLTSVVTTYPGRVGERAETLEVPSNLTLPKIQDSFSPPETVSFWELPAFITFFEAAGFSAHAHRLHWHSLIASPLLLIAMVLMGAVFSLKPSQRSVNWLFRIVGAVAAGFGVFFFSKITYTLGLSQTLPVNLAAWSPALVTTMVALAALFHLEDG,failed
10,MRKDETSNTSPDISVAQPASALRYHLRPPRRNDGAAIHQLVSECPPLDLNSLYAYLLLCEHHAHTCVVAESPGGRIDGFVSAYLLPTRPDVLFVWQVAVHSRARGHRLGRAMLGHILERQECRHVRHLETTVGPDNQASRRTFAGLAGERGAHVSEQPFFDRQAFGGADHDDEMLLRIGPFTHPPH,not failed
11,MRKDILYMLLLLLITDLSIIADIPVLRQSLPFIFFTIIPGYLLLGILKFKVELIDGSVIAAALSIFLMMMTGLIINSFYPLIMRPLSLLPILSAINLLIIALMVIYHLRGEEPLNLKASGNLSTALSSLLFPVLTVIGSYLMNKYSVNTVLLLVLLFIPVYIILLEVFKKKIGPATYPVAIFSISLSLLIMNGLPSNYLIGRDIHWEFYLFRKALMAHHWDMHVGSYNAYNACLSVTVLPVIYKVLLNVPEVYIFKFYYGFIGALMPLPVYLISERILKRSDYGFYATLLFIFQFSFIYILGWCRQLVALLFFAAAVMVLTGDMRRSHKKLLFVVFMVGTVLSHYTTAYVFFFLVALIPILVRVMKRLKVPDDSRGFFAASLAVLFFVVVFAWYAQATGAPFKSAVSFFTKTLRSMSEFFSADMRNNSELAVVGIGISNFPNLLSTLVHDTVFALIGAGALAVIFKEEYRQGREYLAAVILCMGILVAFIALPFVSKGYGGPRLFTQLLVILAPLFITGIDALTGFIGRVRWRIPSIIVLLILLFSCTTYLNYHFAGIPYSYAYDDGGERRYETFIYDNEVTGALWLSNHYNETSVIHGDKMIYSRIIYGFSTYPRVDREFFNGTDTETGGYVYLTHFNLYQRLVFLDYPLAPPRVVNGALKLDNVESINNYKDLIVNMSTIYDNGGSRVLIVA,failed
12,MRKDWGDGPGGLGTAMQDKILLIEDSVALSMLLRTRLSDETEAEVVHCASMAEADALMQANNFTLALTGLNLPDAPKGEILTLLSERKVPAIVFTATVDEEARKRYAEKKIIDYIVKDGHRTVDAVVKTVDRIMTNKRFSVLVVDDARTARSGLVEILERQNFKVSEAHSGNRALEILSQDPSIQLVITDYHMPDMDGYELTRRIRDSRSSEDLRVIGISSSTDRLLSASFLKAGASDFVYRPFVPEELQCRIDNNIETLKQLKRLRELAERDHLTGLPNRRSFFERTRALMDVINDNDESGAVAILDIDHFKKINDTLGHDAGDRALKKLAELLQGMCDEQRHIPARLGGEEFAVFLRGLDARAAYAFCEELREQVEKNGRQLSGSSLALTISLGVVEIEKGEPFDNQLNAADQLLYLAKANGRNRVYSDIMIQEGLQKIGLNG,failed

# — a protein production outcome set (Wang et al. 2014)
